Results: PMC7810697, “Sarcolipin alters SERCA1a interdomain communication by impairing binding of both calcium and ATP” (Scientific Reports, 2021)

Experiments:
[1] = target: T1, DDM-solubilized SR (native SERCA1a) (Oryctolagus cuniculus, UniProt P04191); assay: Vanadate inhibition of phosphoenzyme formation, DDM-solubilized SR; assay type: biochemical, rabbit; conditions: Suppl. Fig. 7
T1 construct: DDM-solubilized native SERCA1a purification; from tissue; host or cells: rabbit skeletal muscle sarcoplasmic reticulum
Description: (§1) Transient formation of the phosphoenzyme intermediate was measured after incubation with [γ^32P]ATP followed by acid quenching, and filtration. For most experiments, 50 µL of enzyme at 10 µg/mL in a buffer containing 50 mM Tes-Tris pH7.5, 1 mM KCl, 5 mM MgCl2, 20% glycerol (w/w) and 0.5 mg/mL DDM, supplemented or not with SLN, was stored on ice. Concentrations of EGTA and calcium are specified in figure legends in order to reach the appropriate [Ca^2+]free and therefore the desired starting state for the ATPase. For kinetics of phosphorylation, we initiate reaction by addition of 2 µM [γ^32P]ATP (5 mCi/µmole), and calcium at 100 µM when specified. Reaction was quenched by addition of 2 mL of cold quenching medium (500 mM TCA + 30 mM H3P0_4) under vigorous mixing, and immediately stored on ice for 20–30 min to improve precipitation, a period of time critical for retention of the precipitate on the filter in presence of detergent. This was followed by filtration on GS filters (Millipore, Saint Quentin-Fallavier, France) and careful rinsing of the filters with diluted quenching medium (50 mM TCA + 3 mM H3P0_4). The amount of radioactivity bound to the filter was estimated by liquid scintillation counting (Perkin Elmer TriCarb Counter). […]

[2] = target: T1, DDM-solubilized SR (native SERCA1a); assay: Kinetics of phosphorylation from [γ32P]ATP, DDM-solubilized SR; assay type: biochemical, rabbit; conditions: calcium-deprived state
Description: as §1

EPmax (vanadate series), DDM-solubilized SR [1]: 3.66+/-0.54 nmoles/mg of ATPase
maximum level of phosphorylated intermediate, DDM-solubilized SR ([2]; Suppl. Fig. 5A): 6.39+/-0.20 nmoles EP/mg ATPase
t1/2 of phosphorylation, DDM-solubilized SR ([2]; no SLN added (native SLN present), three replicates from two independent experiments, p<0.0001 vs recS1a alone, p=0.002 vs recS1a+Palm-SLN or recS1a+SLN): 10.4 s⁻¹
B1: SR: DDM-solubilized native rabbit sarco-endoplasmic reticulum SERCA1a, still containing native SLN (protein)
chain: MEAAHSKSTEECLAYFGVSETTGLTPDQVKRHLEKYGHNELPAEEGKSLWELVIEQFEDLLVRILLLAACISFVLAWFEEGEETITAFVEPFVILLILIANAIVGVWQERNAENAIEALKEYEPEMGKVYRADRKSVQRIKARDIVPGDIVEVAVGDKVPADIRILSIKSTTLRVDQSILTGESVSVIKHTEPVPDPRAVNQDKKNMLFSGTNIAAGKALGIVATTGVSTEIGKIRDQMAATEQDKTPLQQKLDEFGEQLSKVISLICVAVWLINIGHFNDPVHGGSWIRGAIYYFKIAVALAVAAIPEGLPAVITTCLALGTRRMAKKNAIVRSLPSVETLGCTSVICSDKTGTLTTNQMSVCKMFIIDKVDGDFCSLNEFSITGSTYAPEGEVLKNDKPIRSGQFDGLVELATICALCNDSSLDFNETKGVYEKVGEATETALTTLVEKMNVFNTEVRNLSKVERANACNSVIRQLMKKEFTLEFSRDRKSMSVYCSPAKSSRAAVGNKMFVKGAPEGVIDRCNYVRVGTTRVPMTGPVKEKILSVIKEWGTGRDTLRCLALATRDTPPKREEMVLDDSSRFMEYETDLTFVGVVGMLDPPRKEVMGSIQLCRDAGIRVIMITGDNKGTAIAICRRIGIFGENEEVADRAYTGREFDDLPLAEQREACRRACCFARVEPSHKSKIVEYLQSYDEITAMTGDGVNDAPALKKAEIGIAMGSGTAVAKTASEMVLADDNFSTIVAAVEEGRAIYNNMKQFIRYLISSNVGEVVCIFLTAALGLPEALIPVQLLWVNLVTDGLPATALGFNPPDLDIMDRPPRSPKEPLISGWLFFRYMAIGGYVGAATVGAAAWWFMYAEDGPGVTYHQLTHFMQCTEDHPHFEGLDCEIFEAPEPMTMALSVLVTIEMCNALNSLSENQSLMRMPPWVNIWLLGSICLSMSLHFLILYVDPLPMIFKLKALDLTQWLMVLKISLPVIGLDEILKFIARNYLEG
